US20080004436A1 (YEDA RESEARCH AND DEVELOPMENT CO LTD AT THE WEIZMANN …, published 2008)

T1: colicin E7 DNase (ColE7) (E. coli, UniProt Q47112 444-576)
T1 sequence: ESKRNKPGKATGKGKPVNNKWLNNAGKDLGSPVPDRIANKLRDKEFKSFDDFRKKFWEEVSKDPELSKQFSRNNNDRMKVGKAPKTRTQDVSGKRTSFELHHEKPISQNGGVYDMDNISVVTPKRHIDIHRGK

T2: colicin E9 DNase (ColE9) (E. coli, UniProt P09883 449-582)
T2 sequence: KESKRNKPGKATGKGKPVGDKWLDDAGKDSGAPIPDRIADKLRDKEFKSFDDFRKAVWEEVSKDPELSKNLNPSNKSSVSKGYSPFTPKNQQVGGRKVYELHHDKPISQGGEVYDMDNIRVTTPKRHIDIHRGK


Columns and labels:
colicin E7 DNase (ColE7) [1] = target: T1, colicin E7 DNase (ColE7); assay: cell-based or functional assay
colicin E7 DNase (ColE7) [2] = target: T1, colicin E7 DNase (ColE7); assay: not stated (running text of Example 4)
colicin E9 DNase (ColE9) = target: T2, colicin E9 DNase (ColE9); assay: not stated (running text of Example 4)
colicin E7 DNase (ColE7) [3] = target: T1, colicin E7 DNase (ColE7); assay: affinity measurements (Kleanthous laboratory; method not stated)

Binder	ColE7 concentration at which full protection was observed, in vivo protection assay, 0.05 mM IPTG (colicin E7 DNase (ColE7) [1]) [µM]	ColE7 concentration at which full protection was observed, in vivo protection assay, 1 mM IPTG (colicin E7 DNase (ColE7) [1]) [µM]	ColE7 concentration at which full protection was observed, in vivo protection assay, w/o IPTG (colicin E7 DNase (ColE7) [1]) [µM]	Kd (colicin E7 DNase (ColE7) [2]) [pM]	Kd (colicin E9 DNase (ColE9)) [pM]	Kd (colicin E7 DNase (ColE7) [3]) [pM]	koff (colicin E7 DNase (ColE7) [3]) [s⁻¹]	kon (colicin E7 DNase (ColE7) [3]) [M⁻¹ s⁻¹]
immunity protein 7 (Im7), wild type (other, also called wild-type Im7) MELKNSISDYTEAEFVQLLKEIEKENVAATDDVLDVLLEHFVKITEHPDGTDLIYYPSDNRDDSPEGIVKEIKEWRAANGKPGFKQG	> 100	> 100	100	0.00079	56000	≤ 0.01	≤ 1e-05	7.6e+08
in vitro evolved Im9 variant #8 (Round 8, high stringency) (designed binder, also called Evolved Im variant#8; evolved variant 8) MELKHRISDYTEAEFLQLVTTICDANASSEEELDKLITHFEEMTEHPSGSDLIYWPKEGDDDSPSGIVNTVKQWRAANGKSGFKQG						3.85	0.0032	8.3e+08
